Assay results taken from patent publication US8524454 (RESEARCH FOUNDATION OF STATE UNIVERSITY OF NEW YORK, dated 2013).

T1: transcobalamin receptor (TCblR) purified from human placenta (human, UniProt Q9NPF0 32-282)
T1 construct: also called TCR; purified TCblR
T1 sequence: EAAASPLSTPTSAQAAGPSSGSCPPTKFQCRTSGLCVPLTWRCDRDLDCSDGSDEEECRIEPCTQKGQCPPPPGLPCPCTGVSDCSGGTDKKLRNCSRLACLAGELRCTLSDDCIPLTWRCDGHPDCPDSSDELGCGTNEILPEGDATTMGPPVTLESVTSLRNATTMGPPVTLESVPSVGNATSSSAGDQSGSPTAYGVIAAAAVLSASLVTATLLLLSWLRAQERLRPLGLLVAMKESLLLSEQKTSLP

T2: recombinant extracellular fragment of TCblR produced in HEK 293 cells (human, UniProt Q9NPF0 32-247)
T2 construct: Highly glycosylated; also called EXC fragment of TCblR; recombinant TCblR extracellular domain
T2 sequence: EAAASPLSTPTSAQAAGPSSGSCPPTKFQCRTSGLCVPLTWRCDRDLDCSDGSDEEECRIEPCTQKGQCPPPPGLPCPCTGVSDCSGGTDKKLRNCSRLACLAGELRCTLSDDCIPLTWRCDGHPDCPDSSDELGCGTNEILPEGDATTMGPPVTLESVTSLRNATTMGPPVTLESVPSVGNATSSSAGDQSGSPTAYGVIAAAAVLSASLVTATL

B1: recombinant extracellular (EXC) domain of TCblR produced in NSO myeloma cells, cleaved from the Fc fusion protein (receptor)
chain: SPLSTPTSAQAAGPSSGSCPPTKFQCRTSGLCVPLTWRCDRDLDCSDGSDEEECRIEPCTQKGQCPPPPGLPCPCTGVSDCSGGTDKKLRNCSRLACLAGELRCTLSDDCIPLTWRCDGHPDCPDSSDELGCGTNEILPEGDATTMGPPVTLESVTSLRNATTMGPPVTLESVPSVGNATSSSAGDQSGSPTAY
notes: Fully glycosylated; also called EXC fragment; EXC-TCblR; not shown: some amino acids of the original Fc fusion protein remained in the cleaved fragment; they are not specified
B2: holo-transcobalamin (recombinant human TC saturated with cobalamin) (ligand, UniProt P20062 19-427, looked up)
chain: EMCEIPEMDSHLVEKLGQHLLPWMDRLSLEHLNPSIYVGLRLSSLQAGTKEDLYLHSLKLGYQQCLLGSAFSEDDGDCQGKPSMGQLALYLLALRANCEFVRGHKGDRLVSQLKWFLEDEKRAIGHDHKGHPHTSYYQYGLGILALCLHQKRVHDSVVDKLLYAVEPFHQGHHSVDTAAMAGLAFTCLKRSNFNPGRRQRITMAIRTVREEILKAQTPEGHFGNVYSTPLALQFLMTSPMRGAELGTACLKARVALLASLQDGAFQNALMISQLLPVLNHKTYIDLIFPDCLAPRVMLEPAAETIPQTQEIISVTLQVLSLLPPYRQSISVLAGSTVEDVLKKAHELGGFTYETQASLSGPYLTSVMGKAAGEREFWQLLRDPNTPLLQGIADYRPKDGETIELRLVSW
notes: also called TC-Cbl; holo TC

How the values were obtained:
[1] = biological target: B2; assay: binding studies with the recombinant extracellular domain
[2] = biological target: T1, transcobalamin receptor (TCblR) …; assay: radiolabeled Cbl-TC binding to purified TCblR competed by unlabeled holo-TC or apo-TC (FIG. 12)
[3] = biological target: T2, recombinant extracellular fragment of …; assay: not described; extracellular fragment expressed in HEK 293 cells

Binder: B1
- binding result [1]: binds

Binder: B2
- fold difference in affinity (holo TC against apo TC) [2]: 28 fold
- fold higher affinity (holo-TC against the apo protein) [3]: 28 fold
